Consider 125 sequences from the supplement of paper PMC9112550, “Optimization of the antimicrobial peptide Bac7 by deep mutational scanning” (BMC Biology, 2022).
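Further: peptides expressed intracellularly from a pBAD plasmid library in pooled LB shake-flask culture, induced with 0.3% L-arabinose, DNA abundance read by NGS, three biological replicates, DESeq2 with apeglm shrinkage.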

This data set relates to Escherichia coli TOP10. Nature of the data set: shrunken log2 fold change of peptide-encoding DNA abundance (4.5 h post-induction vs induction); higher = less antimicrobial activity (less host growth inhibition). To be noted: time post-induction: 4.5 h; library: site-saturation at positions 5, 18, 19, 20.
Turning to RRIRDRPPRLPRPRPRPCNVPRP, the “shrunken log2 fold change” value is 0.0436.

Regarding RRIRTRPPRLPRPRPRPWNPPRP, the “shrunken log2 fold change” value amounted to 0.0296.

For RRIRSRPPRLPRPRPRPPMPPRP, the “shrunken log2 fold change” value came to 0.486.

Regarding RRIRERPPRLPRPRPRPEGYPRP, the “shrunken log2 fold change” value is -0.00062.

Turning to RRIRLRPPRLPRPRPRPNQAPRP, the “shrunken log2 fold change” value is -0.0446.

In the case of RRIRNRPPRLPRPRPRPKHGPRP, the “shrunken log2 fold change” value was 0.0401.

Consider RRIRMRPPRLPRPRPRPRMDPRP, for which the “shrunken log2 fold change” value was determined as 0.356.

As to RRIRARPPRLPRPRPRPWVWPRP, the “shrunken log2 fold change” value was determined as 0.596.

For the sequence RRIRTRPPRLPRPRPRPHRFPRP, the “shrunken log2 fold change” value was -0.0213.

Consider RRIRCRPPRLPRPRPRPMAHPRP, for which the “shrunken log2 fold change” value is -0.00655.

On to RRIRKRPPRLPRPRPRPQNYPRP, for which the “shrunken log2 fold change” value is -0.196.

On to RRIRNRPPRLPRPRPRPQHQPRP, for which the “shrunken log2 fold change” value was -0.135.

On to RRIRRRPPRLPRPRPRPQGHPRP, for which the “shrunken log2 fold change” value is 0.071.

RRIRDRPPRLPRPRPRPARNPRP: the “shrunken log2 fold change” value amounted to 0.316.

RRIRSRPPRLPRPRPRPTGLPRP: the “shrunken log2 fold change” value came out at 0.127.

Regarding RRIRTRPPRLPRPRPRPSKCPRP, the “shrunken log2 fold change” value was -0.535.

With RRIRERPPRLPRPRPRPNVPPRP, the “shrunken log2 fold change” value was -0.0158.

As to RRIRSRPPRLPRPRPRPMQQPRP, the “shrunken log2 fold change” value came out at 0.178.

Take RRIRIRPPRLPRPRPRPQHAPRP: the “shrunken log2 fold change” value stood at 0.16.

Turning to RRIRYRPPRLPRPRPRPPKNPRP, the “shrunken log2 fold change” value is -0.164.

For RRIRCRPPRLPRPRPRPWMVPRP, the “shrunken log2 fold change” value is -0.559.

Take RRIRYRPPRLPRPRPRPEFFPRP: the “shrunken log2 fold change” value is -0.0803.

As for RRIRKRPPRLPRPRPRPFHCPRP, the “shrunken log2 fold change” value was -0.0128.

With RRIRCRPPRLPRPRPRPSQRPRP, the “shrunken log2 fold change” value is -0.54.

Regarding RRIRTRPPRLPRPRPRPIMWPRP, the “shrunken log2 fold change” value was 0.0465.

On to RRIRIRPPRLPRPRPRPYLRPRP, for which the “shrunken log2 fold change” value was -0.086.

For the sequence RRIRQRPPRLPRPRPRPDLIPRP, the “shrunken log2 fold change” value stood at 0.0281.

As for RRIRQRPPRLPRPRPRPSLKPRP, the “shrunken log2 fold change” value is -0.235.

Take RRIRLRPPRLPRPRPRPSFFPRP: the “shrunken log2 fold change” value is -0.207.

For RRIRPRPPRLPRPRPRPYIIPRP, the “shrunken log2 fold change” value was -0.455.

For the sequence RRIRCRPPRLPRPRPRPAVMPRP, the “shrunken log2 fold change” value came out at 0.067.

With RRIRIRPPRLPRPRPRPLLIPRP, the “shrunken log2 fold change” value is -0.485.

For the sequence RRIRIRPPRLPRPRPRPVMVPRP, the “shrunken log2 fold change” value is -0.066.

Turning to RRIRSRPPRLPRPRPRPCDCPRP, the “shrunken log2 fold change” value is -0.239.

In the case of RRIRERPPRLPRPRPRPKSCPRP, the “shrunken log2 fold change” value was -0.00876.

For RRIRTRPPRLPRPRPRPQNSPRP, the “shrunken log2 fold change” value is -1.19.

As for RRIRYRPPRLPRPRPRPYDHPRP, the “shrunken log2 fold change” value was -0.474.

For the sequence RRIRTRPPRLPRPRPRPAEAPRP, the “shrunken log2 fold change” value amounted to 0.148.

For RRIRARPPRLPRPRPRPSRRPRP, the “shrunken log2 fold change” value worked out at 0.297.

As for RRIRQRPPRLPRPRPRPMPSPRP, the “shrunken log2 fold change” value was -0.162.

Regarding RRIRLRPPRLPRPRPRPNANPRP, the “shrunken log2 fold change” value is -0.101.

Take RRIRRRPPRLPRPRPRPDRTPRP: the “shrunken log2 fold change” value came to 0.222.

For the sequence RRIRARPPRLPRPRPRPKFHPRP, the “shrunken log2 fold change” value amounted to 0.133.

For RRIRLRPPRLPRPRPRPWSYPRP, the “shrunken log2 fold change” value is -1.41.

For RRIRSRPPRLPRPRPRPKRTPRP, the “shrunken log2 fold change” value amounted to 0.312.

RRIRPRPPRLPRPRPRPHLGPRP: the “shrunken log2 fold change” value was determined as 0.088.

Turning to RRIRFRPPRLPRPRPRPSWWPRP, the “shrunken log2 fold change” value worked out at 0.212.

Regarding RRIRHRPPRLPRPRPRPPGWPRP, the “shrunken log2 fold change” value turned out to be 0.424.

As to RRIRIRPPRLPRPRPRPFAIPRP, the “shrunken log2 fold change” value is -0.886.

As to RRIRNRPPRLPRPRPRPGSEPRP, the “shrunken log2 fold change” value was -0.24.

As to RRIRLRPPRLPRPRPRPMKWPRP, the “shrunken log2 fold change” value came to 0.0101.

As to RRIRFRPPRLPRPRPRPDMWPRP, the “shrunken log2 fold change” value was -1.03.

Consider RRIRLRPPRLPRPRPRPGWTPRP, for which the “shrunken log2 fold change” value worked out at 0.208.

On to RRIRVRPPRLPRPRPRPIVYPRP, for which the “shrunken log2 fold change” value was -0.0876.

Take RRIRVRPPRLPRPRPRPMVDPRP: the “shrunken log2 fold change” value is -0.0954.

As for RRIRNRPPRLPRPRPRPHYSPRP, the “shrunken log2 fold change” value was -0.363.

With RRIRMRPPRLPRPRPRPDKEPRP, the “shrunken log2 fold change” value was -0.01.

As to RRIRQRPPRLPRPRPRPQEMPRP, the “shrunken log2 fold change” value was -0.119.

RRIRFRPPRLPRPRPRPCQAPRP: the “shrunken log2 fold change” value is -0.0302.

Consider RRIRLRPPRLPRPRPRPKCHPRP, for which the “shrunken log2 fold change” value was -0.387.

RRIRWRPPRLPRPRPRPGSDPRP: the “shrunken log2 fold change” value came out at 0.661.

Regarding RRIRSRPPRLPRPRPRPKNVPRP, the “shrunken log2 fold change” value was -0.29.

With RRIRGRPPRLPRPRPRPNNLPRP, the “shrunken log2 fold change” value is -0.349.

Regarding RRIRARPPRLPRPRPRPWMQPRP, the “shrunken log2 fold change” value is -0.152.

With RRIRVRPPRLPRPRPRPPGYPRP, the “shrunken log2 fold change” value amounted to 0.0333.

Consider RRIRGRPPRLPRPRPRPGDRPRP, for which the “shrunken log2 fold change” value turned out to be 1.

For RRIRHRPPRLPRPRPRPSFLPRP, the “shrunken log2 fold change” value was -0.729.

For RRIRCRPPRLPRPRPRPPIDPRP, the “shrunken log2 fold change” value is -0.071.

With RRIRNRPPRLPRPRPRPIQWPRP, the “shrunken log2 fold change” value was determined as 0.0441.

With RRIRIRPPRLPRPRPRPYPLPRP, the “shrunken log2 fold change” value is -0.176.

Regarding RRIRARPPRLPRPRPRPYWHPRP, the “shrunken log2 fold change” value was -0.241.

On to RRIRCRPPRLPRPRPRPGLIPRP, for which the “shrunken log2 fold change” value was 4.01e-05.

As for RRIRSRPPRLPRPRPRPYYAPRP, the “shrunken log2 fold change” value is -0.551.

In the case of RRIRQRPPRLPRPRPRPADSPRP, the “shrunken log2 fold change” value was -0.00947.

With RRIRCRPPRLPRPRPRPECMPRP, the “shrunken log2 fold change” value is 0.119.

Turning to RRIRLRPPRLPRPRPRPQSYPRP, the “shrunken log2 fold change” value is -0.242.

Regarding RRIRHRPPRLPRPRPRPYRKPRP, the “shrunken log2 fold change” value is -1.23.

For RRIRCRPPRLPRPRPRPGKYPRP, the “shrunken log2 fold change” value was -0.316.

Consider RRIRARPPRLPRPRPRPTMGPRP, for which the “shrunken log2 fold change” value came out at 0.469.

Consider RRIRYRPPRLPRPRPRPKRLPRP, for which the “shrunken log2 fold change” value is -0.102.

On to RRIRTRPPRLPRPRPRPHARPRP, for which the “shrunken log2 fold change” value was determined as 0.158.

On to RRIRPRPPRLPRPRPRPPVFPRP, for which the “shrunken log2 fold change” value worked out at 0.308.

With RRIRCRPPRLPRPRPRPIQFPRP, the “shrunken log2 fold change” value was -0.131.

Take RRIRERPPRLPRPRPRPYMPPRP: the “shrunken log2 fold change” value is -0.429.

Consider RRIRSRPPRLPRPRPRPWIEPRP, for which the “shrunken log2 fold change” value is -0.0567.

Regarding RRIRHRPPRLPRPRPRPWWGPRP, the “shrunken log2 fold change” value is -0.0666.

For RRIRGRPPRLPRPRPRPTFHPRP, the “shrunken log2 fold change” value is 0.366.

On to RRIRQRPPRLPRPRPRPKADPRP, for which the “shrunken log2 fold change” value was 0.143.

For the sequence RRIRTRPPRLPRPRPRPPCRPRP, the “shrunken log2 fold change” value amounted to 0.121.

As to RRIRPRPPRLPRPRPRPQHEPRP, the “shrunken log2 fold change” value was -0.146.

For RRIRRRPPRLPRPRPRPRVGPRP, the “shrunken log2 fold change” value came out at 0.68.

Consider RRIRSRPPRLPRPRPRPHWGPRP, for which the “shrunken log2 fold change” value is -0.107.

Take RRIRYRPPRLPRPRPRPYSGPRP: the “shrunken log2 fold change” value is -1.

Take RRIRPRPPRLPRPRPRPTLLPRP: the “shrunken log2 fold change” value was -0.0649.

RRIRDRPPRLPRPRPRPIVPPRP: the “shrunken log2 fold change” value was -0.142.

In the case of RRIRWRPPRLPRPRPRPMLDPRP, the “shrunken log2 fold change” value worked out at 0.426.

As to RRIRMRPPRLPRPRPRPTSSPRP, the “shrunken log2 fold change” value turned out to be 0.148.

Regarding RRIRFRPPRLPRPRPRPVQAPRP, the “shrunken log2 fold change” value was 0.183.

In the case of RRIRSRPPRLPRPRPRPTTVPRP, the “shrunken log2 fold change” value was determined as 0.14.

As for RRIRRRPPRLPRPRPRPRERPRP, the “shrunken log2 fold change” value amounted to 1.02.

In the case of RRIRTRPPRLPRPRPRPTHDPRP, the “shrunken log2 fold change” value came to 0.139.

RRIRGRPPRLPRPRPRPGNGPRP: the “shrunken log2 fold change” value was 0.434.

With RRIRKRPPRLPRPRPRPMCSPRP, the “shrunken log2 fold change” value was -0.0421.

Consider RRIRMRPPRLPRPRPRPFTEPRP, for which the “shrunken log2 fold change” value was 0.0426.

RRIRRRPPRLPRPRPRPQEPPRP: the “shrunken log2 fold change” value turned out to be 0.0839.

On to RRIRMRPPRLPRPRPRPIHKPRP, for which the “shrunken log2 fold change” value turned out to be 0.0536.

For RRIRKRPPRLPRPRPRPIWTPRP, the “shrunken log2 fold change” value was -0.00674.

Regarding RRIRMRPPRLPRPRPRPDGYPRP, the “shrunken log2 fold change” value amounted to 0.818.

For RRIRDRPPRLPRPRPRPFLMPRP, the “shrunken log2 fold change” value was -0.0685.

For the sequence RRIRMRPPRLPRPRPRPMCRPRP, the “shrunken log2 fold change” value is 0.0713.

As for RRIRWRPPRLPRPRPRPSFYPRP, the “shrunken log2 fold change” value was -0.328.

Regarding RRIRWRPPRLPRPRPRPMSFPRP, the “shrunken log2 fold change” value came out at 0.00806.

In the case of RRIRGRPPRLPRPRPRPVESPRP, the “shrunken log2 fold change” value came out at 0.00705.

For the sequence RRIRDRPPRLPRPRPRPMDIPRP, the “shrunken log2 fold change” value came out at 0.0403.

RRIRFRPPRLPRPRPRPCFCPRP: the “shrunken log2 fold change” value was -0.453.

As for RRIRGRPPRLPRPRPRPCNVPRP, the “shrunken log2 fold change” value was -0.037.

As to RRIRMRPPRLPRPRPRPTPWPRP, the “shrunken log2 fold change” value is 0.844.

RRIRERPPRLPRPRPRPNYKPRP: the “shrunken log2 fold change” value was -0.722.

As to RRIRRRPPRLPRPRPRPKTCPRP, the “shrunken log2 fold change” value came out at 0.265.

Regarding RRIRIRPPRLPRPRPRPPHMPRP, the “shrunken log2 fold change” value was -0.416.

For the sequence RRIRARPPRLPRPRPRPSYKPRP, the “shrunken log2 fold change” value was -0.305.

With RRIRIRPPRLPRPRPRPWKWPRP, the “shrunken log2 fold change” value was -0.00992.

As to RRIRYRPPRLPRPRPRPSEAPRP, the “shrunken log2 fold change” value is -0.096.

Take RRIRNRPPRLPRPRPRPFEAPRP: the “shrunken log2 fold change” value was 0.0104.

With RRIRERPPRLPRPRPRPFWMPRP, the “shrunken log2 fold change” value was -0.262.
